Source: patent US11530263B2, “IL-18 binding protein (IL-18BP) in inflammatory diseases” (AB2 BIO SA, priority 2013, dated 2022)

T1: IL-18 previously complexed to IL-18BP (Homo sapiens, UniProt Q14116)
T1 sequence (Q14116 37-193): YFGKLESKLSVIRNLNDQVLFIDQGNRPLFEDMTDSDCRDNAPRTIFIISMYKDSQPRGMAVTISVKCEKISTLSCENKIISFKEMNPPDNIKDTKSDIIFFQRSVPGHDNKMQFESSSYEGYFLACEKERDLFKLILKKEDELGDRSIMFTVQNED
T1 sequence (O95998 31-194 partner): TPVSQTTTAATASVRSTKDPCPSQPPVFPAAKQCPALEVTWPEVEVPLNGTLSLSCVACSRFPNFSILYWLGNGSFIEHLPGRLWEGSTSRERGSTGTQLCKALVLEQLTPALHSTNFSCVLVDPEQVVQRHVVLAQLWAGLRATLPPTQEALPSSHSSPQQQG

T2: IL-18 previously complexed to monoclonal antibody (Homo sapiens, UniProt Q14116)
T2 sequence (Q14116 37-193): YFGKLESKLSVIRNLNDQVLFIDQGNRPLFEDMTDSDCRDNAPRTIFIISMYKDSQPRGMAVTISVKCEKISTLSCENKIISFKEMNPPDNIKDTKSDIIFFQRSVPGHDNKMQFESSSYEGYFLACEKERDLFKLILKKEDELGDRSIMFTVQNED

T3: human interleukin-18 (Homo sapiens, UniProt Q14116)
T3 sequence (Q14116 37-193): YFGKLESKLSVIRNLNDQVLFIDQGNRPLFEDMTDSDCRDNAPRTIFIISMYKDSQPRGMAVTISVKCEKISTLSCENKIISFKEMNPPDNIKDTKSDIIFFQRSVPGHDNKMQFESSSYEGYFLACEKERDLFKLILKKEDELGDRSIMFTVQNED


Assays:
[1] = molecular target: T1, IL-18 previously complexed to IL-18BP; test: Luminex screening: monoclonal antibody binding on IL-18 previously complexed to IL-18BP; conditions: after third screening step, mRNA sequencing and clone dilution
Excerpt: (§1) Mice were vaccinated aginst human interleukin-18 using a technology allowing immunization with properly folded proteins. Prior to immunization, genetically modified mice were selected for major histocompatibility complexes supposedly sensitive to IL-18 surface area epitopes binding IL-18BP. Following immunization, B cells were isolated from spleen and hybridized following standard hybridoma technology. Hybridoma were sorted onto microplates and then tested for expression of monoclonal anti-IL-18 antibodies targeting IL-18 epitopes included in IL-18BP binding site. The screening was performed in 3 sequential and selective steps: • First step. […] Potential antibodies targeting IL-18 on IL-18BP binding site were rescreened in competition with IL-18BP. For this, monoclonal antibodies were bound to Luminex beads carrying IL-18. The complex was then exposed to biotinylated IL-18BP in order to identify interference to previously identified anti-IL-18 antibodies (see Table 1, Column #2). […] A third screening program was undertaken with Luminex beads linked to IL-18BP and then complexed to interleukin-18, assuring the presentation of properly folded recombinant IL-18 to positive antibody candidates.

[2] = molecular target: T2, IL-18 previously complexed to monoclonal antibody; test: Luminex screening: biotinylated IL-18BP binding on IL-18 previously complexed to monoclonal antibody; conditions: Column #2
Excerpt: as §1

[3] = molecular target: T3, human interleukin-18; test: Luminex screening: monoclonal antibodies binding on IL-18; conditions: IL-18 on Luminex beads
Excerpt: as §1

Row | IL-18BP binding on IL-18 previously complexed to monoclonal antibody, Fluorescence intensity [2] | Monoclonal antibodies binding on IL-18, Fluorescence intensity [3] | Molecule | Binding to IL-18 on the IL-18BP binding site [1]
1 | 1 389 | 26 250 | 107C6: monoclonal anti-IL-18 antibody; VH SEQ ID NO: 9, VK SEQ ID NO: 10 (antibody, V domains shown, Antibody 107C6 VH sequence; Antibody 107C6 VK sequence) VH: QIQLVQSGPELKKPGETVKLSCRASGYTFTNYGMNWVKQAPGKGLKWMGWINTYSGVPTYADDFKGQFAFSLETSAATAFLQINNLKDEDTATYFCAREGYSTTRSMDYWGQGTSVTVSS VL: DIVMSQSPSSLAVSAGEKVTMSCKSSQSLLDSRTRKNYLVWYQQKPGQSPKLLIYWASTRGSGVPDRFTGSGSGTDFTLTISSVQAEDLAVYYCKQSYNLRTFGGGTKLEIK | confirmed to bind to IL-18 on the IL-18BP binding site
2 | 1 292 | 25 126 | 108F8: monoclonal anti-IL-18 antibody; VH SEQ ID NO: 11, VK SEQ ID NO: 12 (antibody, V domains shown, Antibody 108F8 VH sequence; Antibody 108F8 VK sequence) VH: QIQLVQSGPDSKKPGETVKLSCRASGYTFTNYGMNWVKQAPGKGLKWMGWINTYSGVPTYADDFKGQFAFSLETSAATAFLQINNLKDEDTATYFCAREGYSTTRSMDYWGQGTSVTVSS VL: DIVMSQSPSSLAVSAGEKVTMSCKSSQSLLDSRTRKNYLVWYQQKPGQSPKLLIYWASTRGSGVPDRFTGSGSGTDFTLTISSVQAEDLAVYYCKQSYNLRTFGGGTKLEIK | confirmed to bind to IL-18 on the IL-18BP binding site
3 | 1 488 | 23 839 | 132H4: monoclonal anti-IL-18 antibody; VH SEQ ID NO: 23, VK SEQ ID NO: 24 (antibody, V domains shown, Antibody 132H4 VH sequence; Antibody 132H4 VK sequence) VH: EVKLVESGGGLVKPGGSLKLSCAASGFTFSNYAMSWVRQNPAKRLEWVATISSGGANIYYPDSVKGRFIISRDNARNTLYLQMSSLRSEDTAMYYCARGDYFNHFWFAYWGQGTLVTVSA VL: DVLMTQTPLSLPVSLGDQASISCRSSQSIVHSNGNTYLEWYLQKPGQSPKFLIYKVSNRFSGVPDRFSGSGSGTDFTLKINRVEAEDLGIYYCFQGSHVPWTFGGGTKLEIK | confirmed to bind to IL-18 on the IL-18BP binding site
4 | 913 | 25 848 | 109A6: monoclonal anti-IL-18 antibody; VH SEQ ID NO: 13, VK SEQ ID NO: 14 (antibody, V domains shown, Antibody 109A6 VH sequence; Antibody 109A6 VK sequence) VH: EVQLQQSGAELVKPGASVKLSCTASGFKIKDTYIHWVIQRPAQGLEWIGRIDPANGNTIYGSKFQGKATLTADTSSNTAYIHLSSLTSGDSAVYYCAGYVWFAYWGQGTLVTVSA VL: DVVMTQVPLSLPVSLGDQASISCRSSQRLVHSNGNTYLHWFLQKPGQSPKLLIYTVSNRFSGVPDRFSGSGSGTDFTLKISRVEAEDLGVYFCSQSTLVPWTFGGGTKLEIK | confirmed to bind to IL-18 on the IL-18BP binding site
5 | 1 656 | 24 838 | 131B4: monoclonal anti-IL-18 antibody; VH SEQ ID NO: 18, VK SEQ ID NO: 19 (antibody, V domains shown, Antibody 131B4 VH sequence; Antibody 131B4 VK sequence) VH: EVQVQQSGAELVKPGASVKLSCTASGFKIKDTYIHWLKQRPEQGLEWIGRIDPANGNTIYGSKFQGKATITADTSSNTAYIQLSSLTSGDTAVYFCAGYVWFAYWGQGTLVTVSA VL: DAVLTQTPLSLPVSLGDQASISCTSSQSLVHSNGNTYLHWYLQKPGQSPKLLIYKVSDRFSGVPDRFSGSGSGTDFTLMITRVEAEDLGVYFCSQSSLVPWTFGGGTKLEVK | confirmed to bind to IL-18 on the IL-18BP binding site
